Earlier results, collected in patent publication US8399407B2 (Case Western Reserve University, priority 2009, dated 2013).

Conditions: pH 7.4 and 37° C.

## Asp^B28-insulin
  Susceptibility to fibrillation compared with human insulin: more susceptible to fibrillation
